Reference: the supplement of paper PMC11136658

Tested on: peptide library, one residue held at a place counted from the Y acceptor
Assay: relative phosphorylation of the sub-library (ratio to the mean residue at this position); higher = residue favoured
Summary of the method: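 In 384-well plates, purified recombinant kinases were incubated for 90 min with 50 μM ATP containing γ-32P-ATP and biotinylated Tyr-centred peptide libraries, each mixture fixing one residue at a single position between −5 and +5. After capture on streptavidin membranes and rinsing, peptides were quantified by phosphorimaging with ImageQuant. Per-position intensities were scaled to the sum of the 18 (Ser/Thr-free library: 16) randomized residues, then multiplied by that number.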

Sequence of WEE1, construct: aa215-end, human (P30291 215-646, looked up): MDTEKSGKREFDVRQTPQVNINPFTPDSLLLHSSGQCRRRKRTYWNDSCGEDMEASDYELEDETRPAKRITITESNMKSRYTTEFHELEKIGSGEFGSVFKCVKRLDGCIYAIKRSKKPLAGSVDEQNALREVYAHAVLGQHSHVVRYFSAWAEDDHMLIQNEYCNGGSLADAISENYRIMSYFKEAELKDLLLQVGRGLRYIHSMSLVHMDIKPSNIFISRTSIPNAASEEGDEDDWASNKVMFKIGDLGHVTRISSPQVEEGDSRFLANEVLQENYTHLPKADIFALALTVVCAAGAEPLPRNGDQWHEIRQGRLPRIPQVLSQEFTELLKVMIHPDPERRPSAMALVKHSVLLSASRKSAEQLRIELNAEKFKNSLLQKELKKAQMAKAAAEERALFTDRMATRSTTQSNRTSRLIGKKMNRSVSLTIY

WEE1, construct: aa215-end, human (from UniProt P30291)
relative phosphorylation
Details | at +1 | at +2 | at +3 | at +4 | at +5 | at -1 | at -2 | at -3 | at -4 | at -5
A fixed | 0.635 | 0.703 | 0.557 | 0.811 | 0.707 | 0.72 | 0.888 | 0.817 | 0.926 | 1.01
D fixed | 0.354 | 0.437 | 0.425 | 0.604 | 0.562 | 0.619 | 0.593 | 0.846 | 0.849 | 0.957
E fixed | 0.445 | 0.474 | 0.464 | 0.697 | 0.657 | 0.467 | 0.742 | 0.901 | 1.22 | 0.881
F fixed | 0.997 | 1.33 | 0.969 | 0.816 | 0.746 | 2.25 | 0.867 | 1.26 | 1.13 | 1.14
G fixed | 1.03 | 0.713 | 0.776 | 0.921 | 0.88 | 0.693 | 1.54 | 1.06 | 1.24 | 1.15
H fixed | 0.739 | 0.685 | 0.93 | 0.927 | 1.05 | 1.04 | 0.85 | 0.748 | 0.809 | 0.762
I fixed | 1 | 1.04 | 1.2 | 0.781 | 0.881 | 1.15 | 0.943 | 1.24 | 1.21 | 1.03
K fixed | 1.44 | 1.9 | 2.15 | 2 | 1.9 | 0.93 | 1.04 | 1.1 | 0.986 | 1.1
L fixed | 0.815 | 0.945 | 0.806 | 0.752 | 0.833 | 1.61 | 0.866 | 1.11 | 1.05 | 1.15
M fixed | 0.892 | 1.03 | 0.922 | 1.11 | 0.9 | 1.2 | 0.741 | 1.06 | 0.977 | 1.01
N fixed | 0.952 | 0.875 | 0.74 | 0.762 | 0.89 | 1.45 | 1 | 0.817 | 0.747 | 0.872
P fixed | 0.598 | 0.573 | 0.636 | 0.758 | 0.755 | 0.753 | 0.84 | 1 | 0.995 | 0.956
Q fixed | 0.913 | 0.856 | 0.772 | 0.98 | 0.804 | 0.564 | 0.733 | 0.691 | 0.945 | 0.88
R fixed | 4.18 | 2.37 | 3.44 | 2.25 | 2.98 | 0.975 | 1.54 | 1.21 | 1.47 | 1.15
V fixed | 0.819 | 0.941 | 0.93 | 0.751 | 0.675 | 1.11 | 0.924 | 1.12 | 0.907 | 1.02
W fixed | 0.904 | 1.37 | 0.896 | 1.23 | 0.812 | 1.17 | 0.897 | 1.22 | 1.18 | 1.37
pThr fixed | 0.975 | 0.775 | 0.584 | 0.671 | 0.815 | 0.866 | 1.12 | 1.3 | 0.896 | 1.06
pTyr fixed | 1.06 | 1.05 | 0.703 | 0.834 | 0.882 | 7.21 | 1.38 | 1.76 | 1.33 | 1.25
